The record followed here is PMC9834240, “Senescent cells perturb intestinal stem cell differentiation through Ptk7 induced noncanonical Wnt and YAP signaling” (Nature Communications, 2023).

Common to all, as to format: cell-based
Assay [1] has as its system β-Catenin-dependent Wnt signaling (HEK293-TB cells). Description: TOPbrite dual-luciferase Wnt reporter assay. The note with it: SF.3e. As for the experimental part:
Generation of HEK293 cells stably expressing a TOPbrite firefly luciferase Wnt reporter and pRL-SV40 Renilla luciferase (HEK293-TB) was previously described. HEK293-TB cells were maintained in DMEM/F12 (50:50), supplemented with 10% FBS, 2 mM Glutamax (Gibco, #35050-061) and 40 μg/ml hygromycin (Cellgro, #30-240-CR). For the luciferase reporter assay, HEK293-TB cells were seeded in 96-well plates (Falcon, #353377). The next day, cells were treated with indicated Wnt ligands (50 ng/ml) or CM diluted in culture media. After 24 h, the firefly and Renilla luciferase activity was measured using Dual-Glo Luciferase Assay system (Promega, #E2940) on a Perkin Elmer EnVision multilabel reader. The ratios of firefly luminescence to Renilla luminescence were calculated and normalized to control samples that were not treated.

Assay [2] deals with YAP in mouse intestinal organoids. Description: whole mount immunostaining for YAP nuclear localization. On the procedure: For whole mount staining, freshly passaged crypts were mixed with Matrigel (Corning, #356231) and mounted to µ-Slide 8 well chamber slides (ibidi, #80826). Media were changed every 2–3 d. 5 days later, organoids in the chamber slides were then fixed in 4% formaldehyde in PBS for 30 min, permeabilized with 0.5% Triton X-100 for 1 h, and incubated in blocking solution (3% normal donkey serum (Sigma-Aldrich, #566460) and 5% BSA (Sigma-Aldrich, #A7979) in 0.1% Triton X-100 + PBS) for 1 h. Primary and secondary antibodies were diluted in blocking solution and added to fixed organoids. Organoids were incubated with primary antibodies overnight at 4 °C and with secondary antibodies for 2 h. ProLong Diamond Antifade Mountant (Invitrogen, # P36970) was added. Images were acquired with a Yokogawa CSU-W1/Zeiss 3i Marianas spinning disk confocal microscopy system. For each organoid, Z-planes up to 100 μm with 1 or 1.5 μm z-steps were acquired to quantify the number of cell types.

The test system of assay [3] is cytosolic Ca2+ in mouse intestinal organoids. Description: live Ca2+ imaging of mouse intestinal organoids (GCaMP6f/tdTomato: baselined area under curve, peak number, height, width). The note with it: live organoids expressing GCaMP6f. As for the experimental part:
Z stacks were acquired every 10 s.
Z-stack images were converted to mean intensity projections and, where required; background was subtracted using a rolling ball algorithm. Segmentation was conducted on a max-projection over-time of the GCaMP6f channel using Cellpose’s pre-trained “Cytoplasm” classifier. Mean intensity traces were measured in each ROI over the time course in both the GCaMP6f and TdTomato channels using scikit-image[138]. Ca^2+ oscillation patterns were calculated in an unsupervised, automated manner using MATLAB. Mean intensity traces were smoothed using a Savitzky-Golay filter and peaks were identified using the “findpeaks” algorithm from the MATLAB Signal Processing Toolbox. Graphs for GCaMP6f/tdTomato fluorescence ratio, peak numbers, peak height, peak width and baselined area under the curve were generated using Python matplotlib and seaborn packages. Statistical analysis was performed using Python SciPy and scikit-post-hoc packages.

Assay [4] has as its system mouse intestinal organoids. Description: inhibition of Wnt5a-induced cystic organoids. The note with it: individual mice, n = 3. On the procedure: (§1) The jejunum part of the small intestine was removed, flushed with PBS, opened longitudinally, then cut into 0.5 cm pieces. The collected tissues were washed with ice cold PBS multiple times by vortexing and incubated in PBS containing 2.5 mM EDTA for 5 min at 37 °C. After gentle shaking and aspiration, tissues were incubated in PBS containing 5 mM EDTA for 7 min at 37 °C. Tissues were then washed with PBS to remove EDTA and vigorously shaken to release crypts. The released crypts were passed through 70 μm strainers, washed with PBS, and pelleted by centrifugation at 200 × g. Resuspended crypts were mixed with Matrigel (Corning, #356231; Lot#8218007) and pipetted into culture plates. After mixture of crypts and Matrigel solidified, IntestiCult Organoid Growth Medium (Stem Cell Technologies, #06005; Lots #1000021927, #1000034230, #1000037372) was added. Seven days after seeding, organoids were resuspended in dissociation buffer (Gentle Cell Dissociation Reagent; Stem Cell Technologies, #07174), dissociated by pipetting, and seeded for experiments.
(§2) 3-4 biological replicates of organoids from different mice were used per condition. Organoids were cultured in the indicated media, inhibitors, antibodies and/or recombinant proteins for 5 d and fixed in 4% formaldehyde in PBS. Organoids were imaged with a 4× Plan Fluor objective (NA: 0.13, Nikon) on a Nikon Ti-E inverted microscope equipped with a Neo scMOS camera (Andor, Oxford Instruments), a linear encoded automated stage (Applied Scientific Instrumentation), all run by NIS Elements software (Nikon). Organoids were imaged in brightfield and images covering the whole well were stitched and focused into one image projection with an extended depth of focus module (EDF; Nikon). One hundred to 200 organoids per replicate per condition were counted and used for quantification. The number of budding organoids in each condition was normalized by the number of budding organoids in untreated or DMSO treated controls to calculate cystic organoid percentage:1 Cysticorganoidpercentage=100×1−Numberofbuddingorganoidsfromexperiment/Numberofbuddingorganoidsfromcontrol

In assay [5] the test system is mouse intestinal organoids. Description: cystic organoid percentage, organoids treated with recombinant Wnt ligands (Wnt3a, Wnt5a, Wnt11). The conditions noted are these: for percentage of cystic organoids: Fig. 4e, individual mice, n = 3; for cystic organoids (sheet SF.5b): Wnt5a + DMSO, relative to Untreated = 0. As for the experimental part:
as §1, §2

The subject of assay [6] is mouse intestinal organoids. Description: RNAseq of intestinal organoids. The note with it: 2 days. As for the experimental part:
Total RNA was isolated using the RNeasy Plus Mini Kit (Qiagen, #74134) per manufacturer’s instructions. Total RNA was quantified with Qubit RNA HS Assay Kit (Thermo Fisher Scientific, #Q32852) and quality was assessed using RNA ScreenTape on 4200 TapeStation (Agilent Technologies, #5067-5576). cDNA library was generated from 2 ng of total RNA using Smart-Seq V4 Ultra Low Input RNA Kit (Takara, #634894). 150 pg of cDNA was used to make sequencing libraries by Nextera XT DNA Sample Preparation Kit (Illumina, #FC-131-1024). Libraries were quantified with Qubit dsDNA HS Assay Kit (Thermo Fisher Scientific, #Q32851) and the average library size was determined using D1000 ScreenTape on 4200 TapeStation (Agilent Technologies, #5067-5582). Libraries were pooled and sequenced on NovaSeq 6000 (Illumina) to generate 30 millions single-end 50-base pair reads for each sample.
Sequencing reads were filtered and aligned using HTSeqGenie v4.2.2. […] Reads within coding sequences were counted to determine an estimate of gene expression. Read counts were scaled by library size, quantile normalized and precision weights were calculated using the voom R package. […] Differential gene expression was calculated using voom+limma with multiple-hypothesis correction of P values performed using the Benjamini-Hochberg method. […]

Where “and” joins values, the source holds several entries; their conditions need not be identical. Equal values may be shown once. Entries after “also recorded” stand apart in the source; their conditions may differ.

B1: Wnt5a: recombinant protein, R&D Systems 645-WN-010 (protein)
chain: IIGAQPLCSQLAGLSQGQKKLCHLYQDHMQYIGEGAKTGIKECQYQFRHRRWNCSTVDNTSVFGRVMQIGSRETAFTYAVSAAGVVNAMSRACREGELSTCGCSRAARPKDLPRDWLWGGCGDNIDYGYRFAKEFVDARERERIHAKGSYESARILMNLHNNEAGRRTVYNLADVACKCHGVSGSCSLKTCWLQLADFRKVGDALKEKYDSAAAMRLNSRGKLVQVNSRFNSPTTQDLVYIDPSPDYCVRNESTGSLGTQGRLCNKTSEGMDGCELMCCGRGYDQFKTVQTERCHCKFHWCCYVKCKKCTEIVDQFVCK
modifications: biotin
Regarding B1, the “TOPbrite dual-luciferase Wnt reporter activity” value is reported as 0.3121 in assay [1] (replicate 1), 0.2591 in assay [1] (replicate 2), 1.226 in assay [1] (replicate 3) and 1.185 in assay [1] (replicate 4). In addition, the “effect on nuclear localization of YAP” value in assay [2] is on record as “increased nuclear localization of YAP”. Moreover, the “effect on cytosolic Ca2+ levels and oscillations” value in assay [3] was “cytosolic Ca^2+ levels and oscillations increased; also recorded: modulate cytosolic Ca^2+ oscillations”. The “percentage of cystic organoids” value in assay [4] (Fig. 4g, Wnt5a + DMSO) is 46.8995% and 39.0061% and 36.0342%; in assay [4] (Fig. 4i, Wnt5a + IgG) it was 49.9365% and 63.1809% and 67.3433%; in assay [5] (Wnt5a 25 ng/ml), 14.1026% and 5.06% and 6.32%; in assay [5] (Wnt5a 50 ng/ml), 23.3312% and 3.761% and 10.619%; in assay [5] (Wnt5a 100 ng/ml), 26.0174% and 31.7553% and 21.762%; in assay [5] (Wnt5a 250 ng/ml), 40.092% and 41.2431% and 44.3989%. Moreover, the “percentage of cystic organoids” value in assay [5] (Wnt5a 500 ng/ml) was 62.8247% and 56.8452% and 53.6325%. The “cystic organoids (sheet SF.5b)” value in assay [5] (replicate 1) amounted to 22.713; in assay [5] (replicate 2), 18.3144; in assay [5] (replicate 3), 19.185; in assay [5] (replicate 4), 14.2949. The “cystic organoid size” value in assay [5] (Wnt5a compared to Wnt3a) is given as “larger than those treated with Wnt3a”. Also, the “induction of cystic organoids” value in assay [5] (recombinant Wnt ligand added to crypt cultures) is “dose-dependently increased organoids with cystic morphology”. The “Ptk7-dependent DEGs with TEAD binding motifs” value in assay [6] is “increased expression”.
